The target of assay [1] is murine p55 receptor (on mouse L-M cells) (murine) (UniProt P25118). The assay can be described thus: cell-based or functional assay.
The target of assay [2] is TNF receptors (on L-M mouse fibroblasts). The assay can be described thus: cell-based or functional assay.

Sequence of UniProt P25118 (P25118 30-454): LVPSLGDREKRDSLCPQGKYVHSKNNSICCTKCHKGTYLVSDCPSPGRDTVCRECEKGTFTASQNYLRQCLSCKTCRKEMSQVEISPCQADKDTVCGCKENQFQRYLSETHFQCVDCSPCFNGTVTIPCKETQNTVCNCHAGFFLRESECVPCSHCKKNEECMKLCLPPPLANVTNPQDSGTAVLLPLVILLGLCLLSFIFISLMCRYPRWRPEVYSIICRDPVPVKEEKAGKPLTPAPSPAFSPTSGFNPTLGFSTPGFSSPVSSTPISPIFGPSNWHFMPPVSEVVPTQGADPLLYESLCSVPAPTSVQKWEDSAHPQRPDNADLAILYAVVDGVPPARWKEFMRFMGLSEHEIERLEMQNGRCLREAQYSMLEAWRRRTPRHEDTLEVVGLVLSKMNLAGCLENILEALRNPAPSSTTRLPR

The substance “human NGR-TNF (CNGRCG-TNF1-157), non-refolded (from UniProt P01375 1-233)” displayed an in vitro cytolytic activity on mouse L-M cells in assay [1] of 6.11e+07 units/mg.
Still for that read-out and setting: next, “human NGR-TNF (CNGRCG-TNF1-157), refolded (from UniProt P01375 1-233)”: 5.09e+07 units/mg.
Turning to “murine NGR-TNF (Cys-Asn-Gly-Arg-Cys-Gly-TNF1-156) (from UniProt P06804 80-235)”, the in vitro cytotoxic activity, standard cytolytic assay with L-M cells in assay [2] was determined as 1.8e+08 units/mg.

(Values after US7109303.)
